The supplement of paper PMC12042874
± gives the uncertainty stated by the source.

Assay: amyloid nucleation score (Sup35N fusion, yeast selection) (log enrichment); library NNK2; higher = more nucleation; inactive = no reads after selection
Outline: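 Nucleation score is defined as the DiMSum log enrichment of output over input reads, with centring on the mode score of non-aggregating sequences. A minimum of 100 input reads was required for each sequence. Reads came from Illumina sequencing of plasmid inserts from psi-negative yeast expressing Sup35N fused to peptides of 20 random codons, induced with 100 μM copper sulfate for 24 hours and grown 7 days at 30°C on medium lacking adenine and uracil.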

Substance | amyloid nucleation score
LGLDFLCIRYSGFKCTTF | 2.34 ± 0.14
LGLMLIDLIWLRRYIYSWVR | 0.338 ± 0.34
LGMFSYIS | 0.105 ± 0.44
LGNIHIWTSV | -1.53 ± 0.49
LGSGVILLVY | -0.643 ± 1
LGSVGFAVWG | 0.17 ± 0.46
LGSVYRQGSEGGWATYLNTY | inactive
LGTFKGKSEGPVV | 0.616 ± 0.64
LGTIGYVDCFIDSITCYMVL | 7.953 ± 0.028
LGTVRYLS | 0.399 ± 0.41
LGVTLFFQGDSTTRWDLYPV | inactive
LGVVWLS | -0.405 ± 0.3
LGWQPNMWLISFISVSY | -0.81 ± 0.64
LGYCGM | inactive
LGYCSSSILCPCCHKILFDA | -0.521 ± 0.21
LHCLRDIIKRNKDSFPQMWG | -0.607 ± 0.33
LHGSGMENALSVPDMEQFPA | -0.159 ± 0.63
LHLRNVMVQ | -0.681 ± 0.31
LHSSSHVGGYSVGSRSFIHG | 0.294 ± 1.1
LHSYPVKYGSRKDTRAKCGG | 0.605 ± 0.29
LIADSCFFIQGDHPMLSELY | 0.888 ± 0.32
LIDLKGQRSHGVTKGLTDFP | -0.406 ± 0.36

Substance | amyloid nucleation score
LIFNYRVFLSFSW | -0.356 ± 1.1
LIFYGSCIFQRFRIGVLSSG | -0.09 ± 0.65
LIGCLEQG | -0.156 ± 0.56
LIGIYLPWSL | -0.735 ± 0.45
LIGVMGRCPGVLHLRSFVRD | 0.163 ± 0.37
LILLNFTADSRGRRMLCCAW | -0.584 ± 0.76
LILRGDS | -0.913 ± 0.4
LILWRA | 0.456 ± 0.39
LIMRIVWGGLQDQGSVRSSR | 0.855 ± 0.35
LIRVILDGGKGKAGNTWVLQ | 5.17 ± 0.098
LIRVYDSDATTIDRLGVCRW | 0.726 ± 0.35
LITFLCFYHLKHYGLHTVGW | -1.03 ± 0.36
LITRVSSYCCWCLGFTIWAL | -0.77 ± 1
LIVCLFISFFAYELCYESAF | 0.403 ± 0.62
LIVSPCN | -0.059 ± 0.26
LIYPANVWFGFYAEAGEVAQ | 4.21 ± 0.044
LIYVDFHGIQVVCLYLCVHC | inactive
LIYWCHAFVKT | -1.27 ± 0.53
LKGYSQVMRSSIGLWCFRKD | -0.547 ± 0.49
LKLGFRIQLPLLSYGYPFLW | -1.29 ± 0.39
LKLTVPKDRRKKMKGRVALI | -0.064 ± 0.76
LKTIMCFCQIYLFNSDPVHF | 3.37 ± 0.11

Substance | amyloid nucleation score
LLAKSLDTGILD | 6.487 ± 0.025
LLALSFLTVVFEFCLNSMMG | -1.28 ± 0.62
LLCGRYGMECFTRA | inactive
LLDSPEWWYVLCATNWVYYM | 2.88 ± 0.096
LLFIVCRISLNIVGQVA | -0.137 ± 0.53
LLFSLYDYRQIDFNSGHRHV | 4.37 ± 0.056
LLGCYNYSFRWDSRASASR | -0.207 ± 0.55
LLGPYKAHTQKYCWSSYV | -0.287 ± 0.56
LLGWPRLYLWTE | 0.402 ± 0.42
LLHDDVNTYLVRTVRR | 0.322 ± 0.31
LLINDKCPYERMAGQWLFGS | 0.268 ± 0.65
LLKFRVCPW | 4.5 ± 0.086
LLKLTYTSM | 7.032 ± 0.037
LLLFVILCNSNWLCWPR | inactive
LLLINFSYNALTKVRSEEYL | 3.86 ± 0.084
LLLINLLFSASKLALSM | -0.679 ± 1.1
LLLKPMFRVIILMYARVCMY | -1.08 ± 1.1
LLLLTHYEAITR | 0.305 ± 0.43
LLLYEMFSKVGLLFPSYFKY | inactive
LLMFAMYIQIRLLSTATYIV | -0.564 ± 0.79
LLMQYPSLVMVAGRFLVANL | -0.082 ± 0.5
LLMRVFRGESR | -1.02 ± 0.49

Substance | amyloid nucleation score
LLMVFHTTKY | 6.665 ± 0.026
LLNALCMWMPM | 6.876 ± 0.051
LLQILTNQKVNGTCSQRF | -1.48 ± 0.78
LLQIQCICEGMRQWMLKYYY | -0.994 ± 1.1
LLSECWLESGPSGASTC | 1.5 ± 0.5
LLSNFGHVRNSSDKLLLFWS | 2.9 ± 0.18
LLSSSTIIHLRMCMIHGSFW | 0.791 ± 0.67
LLSVVKCACEMRTTKAVIGA | 2.05 ± 0.35
LLSWVHR | -0.357 ± 0.5
LLTGQALFGRASY | 0.122 ± 0.37
LLVKTNYVCGALTNGRMNGT | 2.12 ± 0.081
LLWNVGIVYSHMQVFVMRRY | 1.23 ± 0.13
LLYEPFVWVYKHRYVVTGYS | -1.76 ± 0.76
LLYTCFGVREVQMVTYRNAS | 4 ± 0.063
LMAKLPAINEYPPF | -0.04 ± 0.56
LMATHQPGTFMAGCTTGSEH | 0.914 ± 0.18
LMGLFREFFRYILFGCINQF | -0.419 ± 0.27
LMILRRVVKEPESANKFCGY | inactive
LMISCSYICSVVDYHLMGGS | 3.55 ± 0.06
LMNMSSRSTQCNNQG | -0.139 ± 0.55
